B1: beta'-COP, GAL4 fusion (natural protein, bovine, UniProt P35605 1-906, looked up)
chain: MPLRLDIKRKLTARSDRVKSVDLHPTEPWMLASLYNGSVCVWNHETQTLVKTFEVCDLPVRAAKFVARKNWVVTGADDMQIRVFNYNTLERVHMFEAHSDYIRCIAVHPTQPFILTSSDDMLIKLWDWDKKWSCSQVFEGHTHYVMQIVINPKDNNQFASASLDRTIKVWQLGSSSPNFTLEGHEKGVNCIDYYSGGDKPYLISGADDRLVKIWDYQNKTCVQTLEGHAQNVSCASFHPELPIIITGSEDGTVRIWHSSTYRLESTLNYGMERVWCVASLRGSNNVALGYDEGSIIVKLGREEPAMSMDANGKIIWAKHSEVQQANLKAMGDAEIKDGERLPLAVKDMGSCEIYPQTIQHNPNGRFVVVCGDGEYIIYTAMALRNKSFGSAQEFAWAHDSSEYAIRESNSVVKIFKNFKEKKSFKPDFGAESIYGGFLLGVRSVNGLAFYDWENTELIRRIEIQPKHIFWSDSGELVCIATEESFFILKYLSEKVLAAQETHEGVTEDGIEDGFEVLGEIQEIVKTGLWVGDCFIYTSSVNRLNYYVGGEIVTIAHLDRTMYLLGYIPKDNRLYLGDKELNIVSYSLLVSVLEYQTAVMRRDFSMADKVLPTIPKEQRTRVAHFLEKQGFKQQALTVSTDPEHRFELALQLGELKIAYQLAVEAESEQKWKQLAELAISKCQFGLAQECLHHAQDYGGLLLLATASGNASMVNKLAEGAERDGKNNVAFMSYFLQGKLDACLELLIRTGRLPEAAFLARTYLPSQVSRVVKLWRENLSKVNQKAAESLADPTEYENLFPGLKEAFVVEEWVKETHADLWPAKQYPLVTPNEERNVMEEAKGFQPSRSAAQQELDGKPASPTPVIVTSQTANKEEKSLLELEVDLDNLEIEDIDTTDINLDEDILDD
B2: alpha-COP, the 135-kD subunit of coatomer (bovine), GAL4 fusion (natural protein, UniProt Q27954 1-1224, looked up)
chain: MLTKFETKSARVKGLSFHPKRPWILTSLHNGVIQLWDYRMCTLIDKFDEHDGPVRGIDFHKQQPLFVSGGDDYKIKVWNYKLRRCLFTLLGHLDYIRTTFFHHEYPWILSASDDQTIRVWNWQSRTCVCVLTGHNHYVMCAQFHPSEDLVVSASLDQTVRVWDISGLRKKNLSPGAVESDVRGITGVDLFGTTDAVVKHVLEGHDRGVNWAAFHPTMPLIVSGADDRQVKIWRMNESKAWEVDTCRGHYNNVSCAVFHPRQELILSNSEDKSIRVWDMSKRTGVQTFRRDHDRFWVLAAHPNLNLFAAGHDGGMIVFKLERERPAYAVHGNMLHYVKDRFLRQLDFNSSKDVAVMQLRSGSKFPVFSMSYNPAENAVLLCTRASNLENSTYDLYTIPKDADTQNPDAPEGKRSSGLTAVWVARNRFAVLDRMHSLLIKNLKNEITKKVQVPNCDEIFYAGTGNLLLRDAESITLFDVQQKRTLASVKISKVKYVIWSADMSHVALLAKHAIVICNRKLEALCNIHENIRVKSGAWDESGVFIYTTSNHIKYAVTTGDYGIIRTLDLPIYVTRVKGNNVYCLDRECRPRVLTIDPTEFKFKLALINRKYDEVLHMVRNAKLVGQSIIAYLQKKGYPEVALHFVKDEKTRFSLALECGNIEIALEAAKALDDKNCWEKLGEVALLQGNHQIVEMCYQRTKNFDKLSFLYLITGNLEKLRKMMKIAEIRKDMSGHYQNALYLGDVSERVRILKNCGQKSLAYLTAATHGLDEEAESLKETFDPEKETIPDIDPNAKLLQPPAPIMPLDTNWPLLTVSKGFFEGSIASKGKGGALAADIDIDTVGTEGWGEDAELQLDEDGFVEATEGLGDDALGKGQEEGGGWDVEEDLELPPELDIPPGAAGGAEDGFFVPPTKGTSPTQIWCNNSQLPVDHILAGSFETAMRLLHDQVGVTQFGPYKQLFLQTYARGRTTYQALPCLPSMYGYPNRNWKDAGLKNGVPAVGLKLNDLIQRLQLCYQLTTVGKFEEAVEKFRSILLSVPLLVVDNKQEIAEAQQLITICREYIVGLSMETERKKLPKETLEQQKRICEMAAYFTHSNLQPVHMILVLRTALNLFFKLKNFRTAAAFARRLLELGPKPEVAQQTRKILSACEKNPTDAYQLNYDMHNPFDICAASYRPIYRGKPVEKCPLSGACYSPEFKGQICKVTTVTEIGKDVIGLRISPLQFR
B3: epsilon-COP, GAL4 fusion (natural protein)
chain: not shown

What was measured:
[1] = target: B2; experiment: two-hybrid
[2] = target: B3; experiment: two-hybrid

generations/day in -His + 25 mM AT [1] | generations/day in -His + 25 mM AT [2] | Binder
2.11 generations/day | – | B1
– | 2.8 generations/day | B2
5.2 generations/day | – | B3
